The results in this text go back to a protein production outcome set (Wang et al. 2014).
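Note: failed if final PepcDB status was selected cloned or expressed and not failed if soluble or beyond.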

The data set is described as follows: label from the status in PepcDB records.
Consider “MLTHREYFNSKADIWDSLCAPEEKAKLETIIRGLNIAPGSTVLDVGCGTGILIPYLLAAVGPAGRIVALDIAEAMLERAQSKGFPANVEFICADVVSVPYPDATFDEVICNSAFPHFPHKLKALKEMARVLKPGGRVVICHTKARETINNLHRSLGGVIAGDQIPPGSEMMGMLVAAGLTGIEIDEALDYYLASGFKAMYE”, for which the protein production entry is on record as “failed”.

Take “MLTLILAQVTTLDPARPQAEAVLAGGGRVLAVGTREELSALAPRAEVLDHRDLHLTPGLCDAHTHLVMYGASLSQLDVQGVRSVDEVRARLRERAAQTPAGEWIVGGGFLLSELGLSGYPTAADLDAVSPDHPVLLHSRDHHMIWVNSRALAAAGIHDQTPDPEGGHIVHPLGCLQENAQALVSERVPAPSESEWLAHARAGAQDLAARGYVSTHTMAFEDAAAPLALQTLAARGELPLRVWACLPHERLSAARSLGLSRVPGGLFQWGGVKFFADGALGSRTAWLHAPGFADGSGTGIALDSPDLILERGREALRLGLTPVTHAIGDRANTEVLDVYEQLRPEAEARGIRLRVEHAQHLRPEDLPRFRGLTASVQPVHLPADAAMIRELLPQREQTSYAFRSLKDAGAILAFGSDAPVAPPSVQGNFAAAVSRLGDDGLPLAPAEALTPDDVLWAYTRGPALAAGWDDEGWVKPGARAAFTLWNTIGGEARSLVL”: the protein production entry was “failed”.

Turning to “MLTNIERAKLQLIDETNDMVIITKAEPLDAPNGPEVVWVNKAFENISKYKANEIIGQTPRILQGKETNQNTLKMIKEALKAQTNINVDLLNYTKDGTPYWISFSIVYLRDGQGNLCYLGAIEKDITALKNLNFKLSEKAKTDPLTNVYNQENFFIAGNEAIKNFHQNQEAVGLLFFDVDDFKGINDTQGHIYGDMILKKVAQESLKLVRKTDNVFRYGGDEFAIIFSGIDVKILERKAQQLQKKLAKSHISVSIGGTISIQSDKSINTLLARADEALYYVKANKKGLFFIAE”, the protein production entry is “failed”.

Regarding “MLTPVADGVLVHQSELLRNNTVVVRGESGVLIVDPGLTTGEMGCLAEDLRQLGQPVVAGFATHPDWDHALWHADLGDVPRYGTARCSAYLRELRSEEGWQARVAEGLPPEIADETPLELFGLIVGLPAGAELIPWNGPEVRVIEHPAHAPGHAALLVEDRGVLVAGDMLSDLFVPMLDDTEHPVEDYLTGLRLLEKVADDVEVLVPGHGSVATADQVQVRIGRDREYLHALRDGRAPDDPRLGSSVEPGWEWVNDIHEGQAARMARRSERNGADG”, the protein production entry is reported as “failed”.

As for “MLTTLSCCCNMPVVKVNCWNNMKVQIKSITQWGGVLLLSFSSCYVNANKLIKPNILFIAVDDLKPLIRDYGTAKVQTPNIDKLASQSTVFTRAYSQYPVCGPSRMSILTGLRPESNGIMNLKDKIRDVNPSVITLPQFFKNNGYETAATGKIFDPRNTTSRSEEEVLSWSIPYQRPKHGLKGKTRLAVESIDEPDEKFVDGGILKRGKKLLKQMANKNKPFFLAVGFKKPHLPFVAPKKYYDLYSRESFDLASYQSAPEDADTTYLFHKNQELRGYKPTPIKGGEIKPYPKGKLSSAHQKELLHGYFASVSFIDSLVGELLEELEKTGQAENTVIVFWGDHGFHLGDHGLWGKHTTMEQANHVPLIIKIPGSKANRYAKPVELLDVFPSLTEAAGLSIPNNLQGTSLVSLVTGKLKSIDKVAISQYKRKGAYGYSMRTEQYRYTQWVTPSGKVVYRDLYDLINDPLETKNIINTPEGKLLEVELNKQLHTNSAGLKRLKLEHHHHHH”, the protein production entry is “failed”.

In the case of “MLTTQITQTYHLTTPIISAGMAFVATPKLAAAVSNAGGMGTFSAFMSPPEELRALIRQTRSLSDRPFGIDFITAAANDDHIAICMAERVPVVIFFWSFPPLDWVTQLQNAGVKVWMQVGSLAEATQAKAQGFDAIIAQGQEGGGHNRSEASIFSLLPAICREVAPIPVIAAGGIIDGRGLVAALALGAEAVWCGTRFLASEEAYAHPEYKARVVTATVGDTTRTTLFGPEMPGQLMRVLRNLAVNQWGDRVADATKHGPTQPAIGSTILGGQALPMPKFSAILPTPDTSGDFEEMCLTAGESSGNITAIKSARDILWEMENEALDLLTYRLQAITKEQNLMAAG”, the protein production entry was “failed”.

As to “MLTVDQLALLFVLLLGAVVSVPVGDRFGLPAPVLMTLLGIGLAVADFVPNVDIPPDLILPALLPPLLYAAVRRTSWRQFTANKRPIFLLAVALVFVTTAVVALVAGAIVPGLPIAAAVALGALVAPPDPVAATAVAGQLGLPRRLVSILEGEGLFNDVTAIVLYHVAIAAAVSGTFSLPNAVLDLVLSAVVAVAVGLALGWAANRLMDLLDDVTLQIGLTLLVPYASYVLAEELHGSGVLAVLTTALFLAEYATDADDVMTRLAGHTFWNVVDTLVTGVAFGLIGLELHNALRTASGRWGEMLGWAAAIVAVVVLVRLAYLLPATWLTKRLHAKRDYDEEIPTSWRETVVMWWAGMRGVASAALALAIPLKMDDGSPFPDRDEIVFIAFGVIMGTLVLQGLTLPWLVKRLGVRADTGSEKAFEKALAIRAAKAAKRRLREIEDVEELPEELSEQLLRRAFDIGARISPDLGDEERREAHEQRVRRMKRVRRIQGEMMSAARHEVLAARSEPGADPEIVDRVLRHLDVRSLR”, the protein production entry is “failed”.

As to “MLTYFHPDQSLHHPRTYFSRGRMRMPQEVPERAARLVAAAFAMGFPVREPDDFGIAPIAAVHDTHYLRFLETVHREWKAMPEDWGDEAMSNIFVREPNALRGVLAQAARHLADGSCPVGEHTWRAAYWSAQSALAAAAAVRDGAPAAYALCRPPGHHARVDAAGGFCYLNNAAIAAQALRARHARVAVLDTDMHHGQGIQEIFYARRDVLYVSIHGDPTNFYPAVAGFDDERGAGEGLGYNVNLPMPHGSSEAAFFERVDDALRELRRFAPDALVLSLGFDVYRDDPQSQVAVTTDGFGRLGHLIGALRLPTVIVQEGGYHIESLEANARSFFGGFGALRG”, the protein production entry is on record as “not failed”.

As to “MLVCAAFSGGAGASDAGALLEAARRGDTAQVASLLERKVEVDAPSADGSTPLLLATANDHLAVARQLIEAGADVNRQNSRLDSPYLLAGAEGRLEILRLTLLHGADLKSTNRYGGTALIPACERGHVEVVKTLLQAGVDPNHVNKLGWTGLLEAILLSDGGPRHQEIVRLLIDAGADVNLADADGVSPLAHARQRGQGGIERLLLAAGAQ”, the protein production result is listed as “failed”.

As for “MLVESFNPFNNLLLSSIVAAIPIILFLLCLTVFKMKGVYAAITTLIVTIIVAMAFFKLPGSIAGGATLEGFYQGIIPIGFIVIMAVWLYKIATKSGQFAIVQDSIASVSRDQRVQLLLIGFVFNGFLEGAAGFGVPIAICAVLLTQLGFKPLQAAMYCLVSNAAAGAYGAVGIPIAIVDTLNLPGGVTTSQVALIGNLTLGFISFVVPFLLMYIMDGFKGVKETFPATLVVAVTFTVLQVLIAAFAGPELADIIPGLVAMIALALFSKKWQPKNIFRINKDEKADAVPKHSIGHITYAWSPFIILTIVVMIWSLPAFKGLFEKGGALSALVVNFNVPGTMNAVTNKPNELTFNFFAQTGTAILITAIITIIIAKNMSFKTAGHLLGLTVKELWISVLTICFILAVSKITTYGGLSNAMGQGISKTGAAFPLLSPLLGWIGVFMTGSVVNNNSLFAPIQASVAEQIGTKGSLLVAANVAGGVTAKIVSPQSIAIATAAVNKVGKESELMKMAMRFSIGLLILVCIWTFICSLFIS”, the protein production entry is “failed”.

As for “MLVMKCSKCSAEAIYYAKYNGLYLCRDHFNEMIEGRVKKEIRKQVEFHGDDVTISVALSGGKDSSVTLFLLHKILGNRKNMKIKAFTVDEGIDGYRPSGLESAKRLCTSLGIDHETISFYDSYGLTLDSIVKTNPVKIPCAYCGPLRRKLINEMADKQDADYVALGLNLDDYSQSILMNVAKGDFDRFIRMSPQTDRKVGLVRRIAPLRTILEKEVVLYAVTNDIPFDSSWCPYYSRAQRNVFREVVNKLSEENPSTKFAILKFFDRVRENITTGHEEVKLKRCKICGAPTERDVCTACSSLQEVNEMMAEH”, the protein production result is listed as “failed”.

As to “MLVPLPVREIMRTPVKTISPSAPVIEAAQRLRDEDIGSLVVEDDGSCVGIITESDIVAVTAAEGDTRALSVGDVMAETLVTVAPDADMQAAVDRLQTNNIKKLPVVEDGSLVGIVTTTDLSDYIPHLSRAVRMSNDQSQQKRFTRPDTLYENEDWTFESYGTADGIDVGDHVEFSKTISKADVEAFAEASGDTNRLHLDATFADGTRFGRRIVHGTLVSGIISAALARLPGLTIYLSQELSYQGPVDIDEEVTARCEVVERIQDNRFRLATAVDDSEGNCVIEGDAVVISDPIPDTA”, the protein production entry is listed as “failed”.
